Measurements as given in article PMC4497506 (Journal of medicinal chemistry, 2015).

Molecular target: wild-type HIV-1 YU-2 Env gp120, soluble monomeric (HIV-1 YU-2, UniProt P35961)

B1: mAb F105 (antibody, V domains shown)
VH: QVQLQESGPGLVKPSETLSLTCTVSGGSISSHYWSWIRQSPGKGLQWIGYIYYSGSTNYSPSLKSRVTISVETAKNQFSLKLTSMTAADTAVYYCARGPVPAVFYGDYRLDPWGQGTLVTVSS
VL: EIVLTQSPGTLSLSAGERATLSCRASQSVSSRYLAWYQQKPGQAPRLLIYGASSRATGIPDRFSGSGSGTDFTLTISRVEPEDFAVYYCQQYDNSVCTFGQGTKLEIK
Kd: 24 nM
